The labels stand for the following.
B1: CPEB3 Ribozyme (parent)
chain: GGGGGCCACAGCAGAAGCGUUCACGUCGCGGCCCCUGUCAGAUUCUGGUGAAUCUGCGAAUUCUGCUGU

The variants in this data set derive from B1. Kind of data set: self-cleavage, relative activity (ratio to wild type); higher = more cleavage; co-transcriptional.
Consider U21C A51U, for which the self-cleavage was 0.861.

Take U21C A51C: the self-cleavage amounted to 0.913.

On to U21A U55C, for which the self-cleavage is 0.874.

In the case of U21G C32G, the self-cleavage came out at 0.189.

Consider U21G C32A, for which the self-cleavage is 0.246.

On to U21G C32U, for which the self-cleavage was determined as 0.609.

With U21C C22A, the self-cleavage came to 0.24.

Consider U20G U64C, for which the self-cleavage worked out at 0.189.

Turning to U20G U67G, the self-cleavage was 0.152.

Consider U21G U38G, for which the self-cleavage was 0.274.

On to U21G U38A, for which the self-cleavage is 0.157.

Turning to U21A U67C, the self-cleavage was determined as 0.951.

For U21A U67A, the self-cleavage came out at 0.992.

Take U21C G58A: the self-cleavage was 0.673.

As to U21C G58C, the self-cleavage stood at 0.826.

In the case of U21C G58U, the self-cleavage came to 0.952.

Take U21C A52C: the self-cleavage was determined as 0.854.

Consider U21C G41C, for which the self-cleavage is 0.538.

On to U21C G41U, for which the self-cleavage is 0.73.

Regarding U21C G41A, the self-cleavage came to 0.677.

Turning to U21A, the self-cleavage was 0.979.

As to U21G, the self-cleavage was 0.644.

As to U21C, the self-cleavage is 0.92.

As to U21G A60G, the self-cleavage is 0.251.

As to U21G A60U, the self-cleavage was 0.295.

U21A C39U: the self-cleavage was determined as 0.928.

U21A C39G: the self-cleavage was determined as 0.981.

Turning to U21C U53C, the self-cleavage turned out to be 0.726.

Consider U21C U53A, for which the self-cleavage worked out at 0.765.

In the case of U20G U44G, the self-cleavage came to 0.168.

As to U21G A40U, the self-cleavage came out at 0.317.

Take U21G A40G: the self-cleavage came to 0.463.

Regarding U21A G28A, the self-cleavage was found to be 0.219.

For U21A G28C, the self-cleavage came to 0.193.

U21C G47U: the self-cleavage was determined as 0.978.

For U21C G47A, the self-cleavage was found to be 0.915.

Consider U21C G47C, for which the self-cleavage stood at 0.915.

As to U21C U55C, the self-cleavage stood at 0.611.

For the variant U21G U44C, the self-cleavage was found to be 0.444.

Regarding U21G U44G, the self-cleavage was found to be 0.386.

In the case of U21G U44A, the self-cleavage stood at 0.498.

Turning to U21A C45G, the self-cleavage is 0.956.

Take U21A C45U: the self-cleavage was 0.967.

On to U21A C45A, for which the self-cleavage worked out at 1.01.

Turning to U21G U26A, the self-cleavage was determined as 0.3.

As for U21G U26G, the self-cleavage was determined as 0.221.

Consider U21G G37U, for which the self-cleavage came to 0.196.

On to U21G G37C, for which the self-cleavage was 0.18.

Take U21G G37A: the self-cleavage turned out to be 0.193.

On to U21G C34A, for which the self-cleavage stood at 0.218.

For U21A U26G, the self-cleavage came out at 0.869.

U21A U26A: the self-cleavage was 0.796.

U21A U26C: the self-cleavage is 0.985.

Turning to U21A G50A, the self-cleavage was 0.989.

Consider U21A G50C, for which the self-cleavage worked out at 0.924.

U21C G68A: the self-cleavage stood at 1.

As to U20G U53C, the self-cleavage was determined as 0.222.

In the case of U20G U53G, the self-cleavage is 0.166.

In the case of U20G U53A, the self-cleavage was 0.127.

For U21A G56C, the self-cleavage turned out to be 0.755.

Turning to U21A G56U, the self-cleavage amounted to 0.936.

Consider U21A G56A, for which the self-cleavage was 0.954.

Regarding U21A A52G, the self-cleavage was 1.01.

Turning to U21A A52U, the self-cleavage was 0.935.

Take U21A A52C: the self-cleavage is 1.03.

U21A G30C: the self-cleavage amounted to 0.532.

For U21A G30U, the self-cleavage came to 0.343.

For U21G U62A, the self-cleavage turned out to be 0.316.

In the case of U21G U62C, the self-cleavage worked out at 0.305.

As for U21G U62G, the self-cleavage is 0.273.

As to U20G U61C, the self-cleavage is 0.19.

On to U20G U61G, for which the self-cleavage came out at 0.171.

As for U21C C54U, the self-cleavage worked out at 0.883.

Consider U21C C54G, for which the self-cleavage amounted to 0.688.

Consider U21C C54A, for which the self-cleavage turned out to be 0.769.

Consider U21C G65A, for which the self-cleavage was 0.671.

As to U21C G65U, the self-cleavage turned out to be 0.488.

With U21C G65C, the self-cleavage amounted to 0.393.

As for U21A C33A, the self-cleavage was 0.808.

As to U21A C33U, the self-cleavage came out at 1.

On to U21A C33G, for which the self-cleavage worked out at 0.536.

As to U21A U61A, the self-cleavage was 0.907.

As to U21A U61G, the self-cleavage is 0.94.

As to U21C C39A, the self-cleavage was found to be 0.498.

In the case of U21C C39U, the self-cleavage amounted to 0.842.

With U21A C27U, the self-cleavage was determined as 0.162.

For U21A C27A, the self-cleavage was 0.447.

Regarding U21A G58A, the self-cleavage is 0.898.

With U21G A59C, the self-cleavage was 0.223.

As for U21C C66G, the self-cleavage turned out to be 0.744.

Regarding U21C C66U, the self-cleavage was found to be 0.887.

On to U21C G50U, for which the self-cleavage is 0.878.

As to U21C G50A, the self-cleavage is 0.949.

On to U21C G50C, for which the self-cleavage was 0.849.

With U21C C24U, the self-cleavage turned out to be 0.429.

Take U21C C24G: the self-cleavage worked out at 0.223.

In the case of U21A C24A, the self-cleavage was 0.541.

As to U21A C24G, the self-cleavage was 0.214.

Regarding U21G G48U, the self-cleavage worked out at 0.594.

For U21G G48A, the self-cleavage stood at 0.674.

For U21G G48C, the self-cleavage amounted to 0.648.

As to U21G U49C, the self-cleavage turned out to be 0.738.

On to U21C C29G, for which the self-cleavage was 0.247.

In the case of U21C C29U, the self-cleavage is 0.217.

As for U21A U49C, the self-cleavage stood at 0.972.

As to U21A U49A, the self-cleavage came to 0.96.

As for U21A U49G, the self-cleavage was 0.95.

For the variant U21A G68C, the self-cleavage stood at 1.02.

Turning to U21A G68U, the self-cleavage came to 0.976.

For the variant U21C G30A, the self-cleavage was 0.522.

Regarding U21C G30U, the self-cleavage was found to be 0.268.

Consider U21C G30C, for which the self-cleavage stood at 0.235.

Take C22A: the self-cleavage came out at 0.201.

As for U21C G28U, the self-cleavage amounted to 0.105.

U21C G28C: the self-cleavage turned out to be 0.0853.

As to U21C U61C, the self-cleavage worked out at 0.572.

For the variant U21C U61G, the self-cleavage was 0.7.

On to U21A C66G, for which the self-cleavage is 0.835.

Take U21A C66A: the self-cleavage is 0.781.

Turning to U21G U55C, the self-cleavage is 0.358.

As for U21G U55G, the self-cleavage was found to be 0.346.

For the variant U21G U55A, the self-cleavage turned out to be 0.592.

Consider U21A G37U, for which the self-cleavage stood at 0.356.

U21G G65C: the self-cleavage was 0.306.

For the variant U21G G65U, the self-cleavage worked out at 0.243.

U21G C29G: the self-cleavage amounted to 0.158.

As to U21G C29U, the self-cleavage stood at 0.166.

On to U21G C57A, for which the self-cleavage came to 0.22.

With U21G C57U, the self-cleavage is 0.253.

On to U20G U43C, for which the self-cleavage was 0.182.

Turning to U20G U43A, the self-cleavage was 0.0656.

In the case of U21A C29G, the self-cleavage was 0.445.

In the case of U21A C29U, the self-cleavage was determined as 0.413.

In the case of U21C C27A, the self-cleavage worked out at 0.344.

Turning to U21C C27U, the self-cleavage came out at 0.138.

For the variant U21C C45U, the self-cleavage was found to be 0.88.

In the case of U21C C45A, the self-cleavage is 0.87.

Consider U21C C32U, for which the self-cleavage was 0.918.

Regarding U21C C32A, the self-cleavage was determined as 0.741.

As for U21C C32G, the self-cleavage was 0.226.

As for U21C C63G, the self-cleavage is 0.635.

U21C C63U: the self-cleavage is 0.804.

Turning to U21C C63A, the self-cleavage was 0.47.

Turning to U21A C63U, the self-cleavage was found to be 0.921.

For U21A C63G, the self-cleavage is 0.727.

With U21A C63A, the self-cleavage came out at 0.795.

As to U21G C39G, the self-cleavage worked out at 0.865.

U21G G56U: the self-cleavage is 0.611.

Turning to U21C U36C, the self-cleavage stood at 0.479.

In the case of U21C U36A, the self-cleavage amounted to 0.0993.

For the variant U21C U36G, the self-cleavage was determined as 0.286.

For the variant U21G C27G, the self-cleavage turned out to be 0.227.

In the case of U21G G58U, the self-cleavage was determined as 0.657.

In the case of U21G G58C, the self-cleavage is 0.519.

As to U21A C34U, the self-cleavage worked out at 0.995.

As for U21A C34A, the self-cleavage was found to be 0.708.

In the case of U21G G25C, the self-cleavage was determined as 0.185.

With U21G G25U, the self-cleavage amounted to 0.187.

Turning to U21A U38A, the self-cleavage was 0.276.

For U21A U38C, the self-cleavage came out at 0.373.

For the variant U21A U38G, the self-cleavage was 0.24.

As for U21C G37C, the self-cleavage turned out to be 0.23.

As to U21A A60U, the self-cleavage is 0.586.

Take U21A A60G: the self-cleavage was 0.879.

With U21A A60C, the self-cleavage came out at 0.29.

Turning to U21C U62G, the self-cleavage amounted to 0.614.

In the case of U21C U62C, the self-cleavage came to 0.516.

(Values after the RNAGym collection of RNA variant scans (doi:10.7554/elife.80360).)
